This assay addresses T1, full-length human pituitary G protein-coupled receptor protein (phGR3) expressed in CHO-19P2 cells (Homo sapiens, UniProt P49683).
T1 construct: a ligation reaction was carried out to construct a full-length receptor protein expression plasmid pAKKO-19P2; expressed in transfected cells
T1 sequence (P49683 1-370): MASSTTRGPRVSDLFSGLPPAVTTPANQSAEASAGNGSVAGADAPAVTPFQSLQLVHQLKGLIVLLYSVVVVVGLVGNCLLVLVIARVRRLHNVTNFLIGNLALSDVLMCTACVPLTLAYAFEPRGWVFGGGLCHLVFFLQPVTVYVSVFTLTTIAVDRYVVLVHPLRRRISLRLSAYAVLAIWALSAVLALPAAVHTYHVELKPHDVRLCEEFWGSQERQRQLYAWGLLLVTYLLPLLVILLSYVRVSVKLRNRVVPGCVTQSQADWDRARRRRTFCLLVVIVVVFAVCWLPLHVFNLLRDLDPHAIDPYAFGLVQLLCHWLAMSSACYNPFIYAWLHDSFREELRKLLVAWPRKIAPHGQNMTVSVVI
In words: release of [3H] arachidonic acid metabolites from CHO-19P2 cells. The format is cell-based. The conditions noted are these: synthetic peptide diluted with 0.05% BSA-HBSS to 10^−12M-10^−6M; radioactivity of [3H] arachidonic acid metabolites released in supernatant. The method, then:
The full-length receptor protein-expressed CHO cells and mock CHO cells were seeded in a 24-well plate, 0.5×10^5 cells/well, and cultured for 24 hours. Then, [^3H] arachidonic acid was added at a final concentration of 0.25μCi/well. Sixteen (16) hours after addition of [^3H] arachidonic acid, the cells were rinsed with 0.05% BSA-HBSS and the above-mentioned crude peptide fraction was added, 400 μl/well. The mixture was incubated at 37 C. for 30 minutes and a 300 μl portion of the reaction mixture (400 μl) was added to a scintillator (4 ml) and the amount of [^3H] arachidonic acid metabolite released into the reaction mixture was determined with a scintillation counter. As a result, an arachidonic acid metabolite-releasing activity specific to the full-length receptor protein expressed CHO cells (CHO-19P2) was detected in the 30% CH3CN fraction of the eluate FIG. 16.
The activity of the peptide (19P2-L31) synthesized in Example 21 to specifically release arachidonic acid metabolites from CHO-19P2 cells was assayed in the same manner as Example 11. The synthetic peptide was dissolved in degassed distilled water at a concentration of 10^−3M and diluted with 0.05% BSA-HBSS and the activity to promote release of arachidonic acid metabolites from CHO-19P2 cells at each concentration was assayed using the amount of [^3H] arachidonic acid metabolites as the indicator.
The activity of the synthetic equivalent (19P2- L20) of natural peptide P-2 as synthesized in Example 23 to specifically promote release of arachidonic acid metabolites from CHO-19P2 cells was determined as in Example 11. Thus, the synthetic peptide was dissolved in degassed distilled water at a final concentration of 10^−3M and this solution was serially diluted with 0.05% BAS-HBSS. The activity to specifically promote release of arachidonic acid metabolites from CHO-19P2 cells at each concentration was assayed using the amount of [^3H] arachidonic acid metabolites as the indicator.

Consider three substances from patent US20020143152A1, “Polypeptides, their production and use” (priority 1997, published 2002).

“Also recorded” adds a separate entry of the source. Non-standard residues stand in square brackets, D forms with d. No end group written: not given here. Met(O) = CS(=O)CC[C@H](N)C(=O)O

Turning to “Ser-Arg-Ala-His-Gln-His-Ser-Met(O)-Glu-Ile-Arg-Thr-Pro-Asp-Ile-Asn-Pro-Ala-Trp-Tyr-Ala-Gly-Arg-Gly-Ile-Arg-Pro-Val-Gly-Arg-Phe-NH2 (SRAHQHS[Met(O)]EIRTPDINPAWYAGRGIRPVGRF-NH2; N-terminus assumed; SMILES CC[C@H](C)[C@H](NC(=O)CNC(=O)[C@H](CCCNC(=N)N)NC(=O)CNC(=O)[C@H](C)NC(=O)[C@H](Cc1ccc(O)cc1)NC(=O)[C@H](Cc1c[nH]c2ccccc12)NC(=O)[C@H](C)NC(=O)[C@@H]1CCCN1C(=O)[C@H](CC(N)=O)NC(=O)[C@@H](NC(=O)[C@H](CC(=O)O)NC(=O)[C@@H]1CCCN1C(=O)[C@@H](NC(=O)[C@H](CCCNC(=N)N)NC(=O)[C@@H](NC(=O)[C@H](CCC(=O)O)NC(=O)[C@H](CCS(C)=O)NC(=O)[C@H](CO)NC(=O)[C@H](Cc1c[nH]cn1)NC(=O)[C@H](CCC(N)=O)NC(=O)[C@H](Cc1c[nH]cn1)NC(=O)[C@H](C)NC(=O)[C@H](CCCNC(=N)N)NC(=O)[C@@H](N)CO)[C@@H](C)CC)[C@@H](C)O)[C@@H](C)CC)C(=O)N[C@@H](CCCNC(=N)N)C(=O)N1CCC[C@H]1C(=O)N[C@H](C(=O)NCC(=O)N[C@@H](CCCNC(=N)N)C(=O)N[C@@H](Cc1ccccc1)C(N)=O)C(C)C) [19P2-L31(O), methionine-oxidation product of 19P2-L31]”, the “activity to specifically promote release of arachidonic acid metabolites from CHO-19P2 cells” value was “equivalent to the activity of 19P2-L31; also recorded: found in a dose-dependent manner”.
The value for “Ser-Arg-Ala-His-Gln-His-Ser-Met-Glu-Ile-Arg-Thr-Pro-Asp-Ile-Asn-Pro-Ala-Trp-Tyr-Ala-Gly-Arg-Gly-Ile-Arg-Pro-Val-Gly-Arg-Phe-NH2 (SRAHQHSMEIRTPDINPAWYAGRGIRPVGRF-NH2) [19P2-L31]” was “concentration-dependent arachidonic acid metabolite-releasing activity was detected over the range of 10^−12M -10^−6M; also recorded: found in a concentration-dependent manner”; that for “Thr-Pro-Asp-Ile-Asn-Pro-Ala-Trp-Tyr-Ala-Gly-Arg-Gly-Ile-Arg-Pro-Val-Gly-Arg-Phe-NH2 (TPDINPAWYAGRGIRPVGRF-NH2) [19P2-L20]” was “concentration-dependent arachidonic acid metabolite-releasing activity was detected over the range of 10^−12 -10^−6M in nearly the same degree as 19P2-L31; also recorded: found in a dose-dependent manner”.
